Reference: the supplement of paper PMC10065799, “High-throughput profiling of sequence recognition by tyrosine kinases and SH2 domains using bacterial peptide display” (eLife, 2023)

biological target: EPHB2 (UniProt P29323); test: phosphorylation enrichment, bacterial display (enrichment ratio); higher = better substrate or ligand; peptides without Tyr show the background
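Further: 11-residue human phosphosite peptides and single-mutation variants displayed on the E. coli surface, counted by deep sequencing, each peptide's frequency after selection divided by its frequency in the unselected input library; frequency after pTyr selection over input frequency; kinase dosed for 20-30% of maximal phosphorylation in three min.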

EPHB2, sequence (P29323 whole entry, looked up): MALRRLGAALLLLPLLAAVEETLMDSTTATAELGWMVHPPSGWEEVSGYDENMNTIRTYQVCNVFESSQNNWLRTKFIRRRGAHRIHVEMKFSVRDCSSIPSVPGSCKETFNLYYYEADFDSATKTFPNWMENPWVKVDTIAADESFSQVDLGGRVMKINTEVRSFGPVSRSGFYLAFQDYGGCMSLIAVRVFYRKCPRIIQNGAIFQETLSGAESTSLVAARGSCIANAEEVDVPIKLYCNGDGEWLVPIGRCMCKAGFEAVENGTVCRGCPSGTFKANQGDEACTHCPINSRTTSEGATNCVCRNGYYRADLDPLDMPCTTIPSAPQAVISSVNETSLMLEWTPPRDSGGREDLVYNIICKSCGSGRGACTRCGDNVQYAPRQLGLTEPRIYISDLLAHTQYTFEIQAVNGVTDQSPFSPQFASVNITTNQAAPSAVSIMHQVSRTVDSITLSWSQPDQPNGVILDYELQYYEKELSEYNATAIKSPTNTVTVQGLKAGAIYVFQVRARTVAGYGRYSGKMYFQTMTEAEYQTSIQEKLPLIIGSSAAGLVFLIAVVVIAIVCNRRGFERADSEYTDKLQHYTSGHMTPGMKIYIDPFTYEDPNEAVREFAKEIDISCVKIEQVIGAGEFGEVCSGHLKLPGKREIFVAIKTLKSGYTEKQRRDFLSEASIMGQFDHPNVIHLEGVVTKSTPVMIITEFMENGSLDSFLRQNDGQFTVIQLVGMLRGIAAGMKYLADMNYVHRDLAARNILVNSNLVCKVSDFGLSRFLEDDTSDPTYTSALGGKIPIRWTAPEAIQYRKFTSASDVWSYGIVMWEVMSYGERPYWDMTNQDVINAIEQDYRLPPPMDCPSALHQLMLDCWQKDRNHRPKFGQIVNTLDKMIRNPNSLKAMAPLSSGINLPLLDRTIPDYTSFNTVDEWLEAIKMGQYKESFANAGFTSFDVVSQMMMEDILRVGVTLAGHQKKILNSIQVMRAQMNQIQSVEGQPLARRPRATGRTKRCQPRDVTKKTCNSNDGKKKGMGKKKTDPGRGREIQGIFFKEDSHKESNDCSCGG

| Sequence | phosphorylation enrichment |
| --- | --- |
| EKLQKYFRQNP [EHHADH_Y682_YF] | 0.35 |
| DLVHPYVHKIL [SF3B1_Y570_R568H] | 0.51 |
| ASKEPYYVRCI [MYO1D_Y585] | 0.802 |
| MGGSVYFSYPD [HIKESHI_Y55] | 0.815 |
| FSCLPCGRLAY [SLC52A2_Y305_Y305C] | 0.485 |
| AFLEDYFTSTK [SRC_Y522_E527K] | 0.492 |
| ERPIRYLNHQL [CEP152_Y268_Q265P] | 0.409 |
| QKKEEYKMALY [F8_Y1990_R1985Q] | 0.626 |
| SGVSFYINLCQ [IGF2R_Y2025_N2020S_YF] | 0.695 |
| NTDETYSIDNE [TUBB2B_Y200_C201S] | 0.632 |
| LKFAIYFEVRE [LAMA2_Y1258_A1261V_YF] | 0.483 |
| RPSRQYATLDV [SCAMP3_Y35] | 0.33 |
| TEAGDYKLCFD [TMED1_Y103] | 0.65 |
| GGPTFYIDTNA [ACTL6A_Y69_YF] | 0.626 |
| PRPAGYPSMVS [CACNA1C_Y1832_T1835M] | 0.561 |
| RGLQVYHKRNA [LRP2_Y2010_R2012K] | 0.468 |
| TLAHKYHGGGG [HBB_Y146_A141T] | 0.398 |

| Sequence | phosphorylation enrichment |
| --- | --- |
| NVGGKYSYLKV [GRM3_Y478] | 0.39 |
| PELINYHQHNS [BTK_Y361] | 0.769 |
| SPFMLYQFLKQ [RPAP3_Y567_D564Y_YF] | 2.73 |
| RFWPRYVKVGS [NOG_Y172] | 0.478 |
| KAIMTYVPSFF [ACTN4_Y260_S262P_YF] | 0.531 |
| EASEQHLTKAS [NRCAM_Y739_Y739H] | 0.496 |
| EACRSYSHVVL [CHST6_Y168] | 0.498 |
| SDFSSYARTSI [TERT_Y949_YF] | 0.625 |
| RLYARYFQGDL [PDK3_Y337] | 0.664 |
| FLAVEYHKPHI [IDS_Y225_G224E] | 0.459 |
| ETCLAYMEKRI [TEKT1_Y118_R119M] | 0.617 |
| DFAIVYGTIIL [GPR179_Y460_G455D] | 0.777 |
| AKGMKYVASKK [MET_Y1194_L1195V] | 0.276 |
| LWPIWYRCRRP [MRGPRX1_Y130_H133R] | 0.49 |
| KKMKCYHVGKV [HARS2_Y151_R150C] | 0.431 |
| PADCRYYAFPQ [GAMT_Y222] | 12.2 |

biological target: FGFR1 (UniProt P11362); test: as above
Sequence (P11362 whole entry, looked up): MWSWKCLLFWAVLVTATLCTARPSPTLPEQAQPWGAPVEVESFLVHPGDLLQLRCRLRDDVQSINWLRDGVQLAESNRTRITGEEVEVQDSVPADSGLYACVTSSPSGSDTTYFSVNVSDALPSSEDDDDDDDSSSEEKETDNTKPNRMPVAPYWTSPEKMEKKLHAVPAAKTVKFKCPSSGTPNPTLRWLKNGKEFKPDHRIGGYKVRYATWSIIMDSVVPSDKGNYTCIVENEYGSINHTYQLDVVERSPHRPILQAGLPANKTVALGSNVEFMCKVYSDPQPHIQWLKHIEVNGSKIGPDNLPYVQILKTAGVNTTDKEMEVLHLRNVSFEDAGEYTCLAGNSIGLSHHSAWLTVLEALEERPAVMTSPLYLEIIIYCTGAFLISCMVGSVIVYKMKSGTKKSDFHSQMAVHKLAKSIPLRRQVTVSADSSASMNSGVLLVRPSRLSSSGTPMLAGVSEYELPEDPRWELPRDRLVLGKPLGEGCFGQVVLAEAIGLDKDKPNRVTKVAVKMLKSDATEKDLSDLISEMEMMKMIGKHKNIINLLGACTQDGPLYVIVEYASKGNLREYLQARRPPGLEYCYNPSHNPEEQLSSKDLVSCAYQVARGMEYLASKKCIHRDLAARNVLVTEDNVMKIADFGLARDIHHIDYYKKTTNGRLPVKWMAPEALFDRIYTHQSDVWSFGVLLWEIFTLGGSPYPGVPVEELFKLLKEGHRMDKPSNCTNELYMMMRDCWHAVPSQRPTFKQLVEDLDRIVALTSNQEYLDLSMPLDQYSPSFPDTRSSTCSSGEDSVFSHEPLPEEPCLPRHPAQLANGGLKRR

| Sequence | phosphorylation enrichment |
| --- | --- |
| EKLQKYFRQNP [EHHADH_Y682_YF] | 0.358 |
| DLVHPYVHKIL [SF3B1_Y570_R568H] | 0.457 |
| ASKEPYYVRCI [MYO1D_Y585] | 0.686 |
| MGGSVYFSYPD [HIKESHI_Y55] | 1.49 |
| FSCLPCGRLAY [SLC52A2_Y305_Y305C] | 0.481 |
| AFLEDYFTSTK [SRC_Y522_E527K] | 0.639 |
| ERPIRYLNHQL [CEP152_Y268_Q265P] | 0.383 |
| QKKEEYKMALY [F8_Y1990_R1985Q] | 0.527 |
| SGVSFYINLCQ [IGF2R_Y2025_N2020S_YF] | 0.787 |
| NTDETYSIDNE [TUBB2B_Y200_C201S] | 0.551 |
| LKFAIYFEVRE [LAMA2_Y1258_A1261V_YF] | 0.556 |
| RPSRQYATLDV [SCAMP3_Y35] | 0.37 |
| TEAGDYKLCFD [TMED1_Y103] | 0.653 |
| GGPTFYIDTNA [ACTL6A_Y69_YF] | 0.542 |
| PRPAGYPSMVS [CACNA1C_Y1832_T1835M] | 0.386 |
| RGLQVYHKRNA [LRP2_Y2010_R2012K] | 0.433 |
| TLAHKYHGGGG [HBB_Y146_A141T] | 0.611 |

| Sequence | phosphorylation enrichment |
| --- | --- |
| NVGGKYSYLKV [GRM3_Y478] | 0.449 |
| PELINYHQHNS [BTK_Y361] | 1.27 |
| SPFMLYQFLKQ [RPAP3_Y567_D564Y_YF] | 1.14 |
| RFWPRYVKVGS [NOG_Y172] | 0.487 |
| KAIMTYVPSFF [ACTN4_Y260_S262P_YF] | 0.445 |
| EASEQHLTKAS [NRCAM_Y739_Y739H] | 0.433 |
| EACRSYSHVVL [CHST6_Y168] | 0.533 |
| SDFSSYARTSI [TERT_Y949_YF] | 0.514 |
| RLYARYFQGDL [PDK3_Y337] | 0.684 |
| FLAVEYHKPHI [IDS_Y225_G224E] | 0.393 |
| ETCLAYMEKRI [TEKT1_Y118_R119M] | 0.48 |
| DFAIVYGTIIL [GPR179_Y460_G455D] | 0.565 |
| AKGMKYVASKK [MET_Y1194_L1195V] | 0.415 |
| LWPIWYRCRRP [MRGPRX1_Y130_H133R] | 0.461 |
| KKMKCYHVGKV [HARS2_Y151_R150C] | 0.395 |
| PADCRYYAFPQ [GAMT_Y222] | 10.9 |
